{"source": "patent US20240262869A1", "key": {"[1]": {"molecular_target": "neutralizing antibody CR3022"}, "[2]": {"molecular_target": "neutralizing antibody CR3022", "remark": "listed apart in the source"}, "[3]": {"molecular_target": "neutralizing antibody CR3022", "assay": "SPR, CR3022 captured on Protein G, tagless pInCV02R as analyte (FIG. 11D)"}, "[4]": {"molecular_target": "neutralizing antibody CR3022", "remark": "listed apart in the source"}, "ACE2-hFc (human) [5]": {"molecular_target": "ACE2-hFc (human) (UniProt Q9BYF1)", "sequence (Q9BYF1 18-740 limits assumed)": "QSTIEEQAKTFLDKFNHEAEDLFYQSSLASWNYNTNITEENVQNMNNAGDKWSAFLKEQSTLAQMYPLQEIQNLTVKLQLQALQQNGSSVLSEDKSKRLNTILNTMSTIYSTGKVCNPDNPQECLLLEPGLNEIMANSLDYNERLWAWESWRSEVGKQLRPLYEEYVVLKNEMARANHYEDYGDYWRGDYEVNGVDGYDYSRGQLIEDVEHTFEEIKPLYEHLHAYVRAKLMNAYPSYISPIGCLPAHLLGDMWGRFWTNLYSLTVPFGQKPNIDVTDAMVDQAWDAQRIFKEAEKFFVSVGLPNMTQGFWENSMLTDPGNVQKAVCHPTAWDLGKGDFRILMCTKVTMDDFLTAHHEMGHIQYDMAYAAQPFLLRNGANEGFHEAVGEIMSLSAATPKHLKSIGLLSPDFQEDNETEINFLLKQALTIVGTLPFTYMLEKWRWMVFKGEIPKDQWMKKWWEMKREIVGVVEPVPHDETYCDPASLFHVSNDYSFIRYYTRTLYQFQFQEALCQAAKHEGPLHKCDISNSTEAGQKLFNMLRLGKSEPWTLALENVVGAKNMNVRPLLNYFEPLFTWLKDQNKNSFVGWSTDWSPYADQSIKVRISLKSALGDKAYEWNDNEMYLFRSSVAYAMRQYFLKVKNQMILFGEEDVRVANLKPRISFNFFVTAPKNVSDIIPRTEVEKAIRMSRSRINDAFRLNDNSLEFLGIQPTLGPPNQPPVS"}, "ACE2-hFc (human) [6]": {"molecular_target": "ACE2-hFc (human) (UniProt Q9BYF1)", "remark": "listed apart in the source"}, "ACE2-hFc (human) [7]": {"molecular_target": "ACE2-hFc (human) (UniProt Q9BYF1)", "remark": "listed apart in the source"}, "ACE2-hFc (human) [8]": {"molecular_target": "ACE2-hFc (human) (UniProt Q9BYF1)", "remark": "listed apart in the source"}, "[9]": {"molecular_target": "neutralizing antibody CR3022", "assay": "SPR (ProteOn XPR36), CR3022 captured on Protein G"}, "[10]": {"molecular_target": "neutralizing antibody CR3022", "assay": "SPR, immobilized CR3022"}, "[11]": {"molecular_target": "neutralizing antibody CR3022", "remark": "listed apart in the source"}}, "note": "Values joined by “and” are separate entries in the source; they are usually repeats but may differ in a detail not shown here. Equal values may be shown once. Read-outs that look alike come from different tables or passages of the source.", "data": [{"substance": "mInCV21R (SARS CoV-2 hCMP-RBD) having EIS at the N-terminal (ligand)", "values": [{"measurement": "Kd", "setting": "[1]", "result": "< 1", "unit": "nM"}, {"measurement": "kon", "setting": "[2]", "result": 310000, "unit": "M⁻¹ s⁻¹"}]}, {"substance": "pInCV02R (SARS CoV-2 RBD N-1 (332-532)) (from UniProt P0DTC2 332-532) (ligand)", "values": [{"measurement": "Kd", "setting": "[3]", "result": 30, "unit": "nM"}, {"measurement": "Kd", "setting": "[4]", "result": 29.5, "unit": "nM"}]}, {"substance": "mInCV26R (SARS CoV-2 RBD with hCMP at the C-terminal and EIS at the N-terminal) (ligand)", "values": [{"measurement": "kon", "setting": "[2]", "result": 480000, "unit": "M⁻¹ s⁻¹"}]}, {"substance": "mInCV21R (SARS CoV-2 hCMP-RBD) having EIS at the N-terminal (ligand; other documents disagree on this pair)", "values": [{"measurement": "kon", "setting": "ACE2-hFc (human) [5]", "result": 200000, "unit": "M⁻¹ s⁻¹"}, {"measurement": "Kd", "setting": "ACE2-hFc (human) [6]", "result": "< 1", "unit": "nM"}, {"measurement": "Kd", "setting": "ACE2-hFc (human) [7]", "result": 0.21, "unit": "nM"}, {"measurement": "koff", "setting": "ACE2-hFc (human) [7]", "result": "8.2e-05", "unit": "s⁻¹"}, {"measurement": "kon", "setting": "ACE2-hFc (human) [7]", "result": 400000, "unit": "M⁻¹ s⁻¹"}]}, {"substance": "MsDPS2-SpyTag-mRBD-SpyCatcher conjugate (other; other documents disagree on this pair)", "values": [{"measurement": "kon", "setting": "ACE2-hFc (human) [8]", "result": "> 1e+06", "unit": "M⁻¹ s⁻¹"}, {"measurement": "kon", "setting": "ACE2-hFc (human) [5]", "result": "2.3e+06", "unit": "M⁻¹ s⁻¹"}]}, {"substance": "mInCV29R (SARS CoV-2 RBD with GlyIZ at C-terminal and EIS at the N-terminal) (ligand; other documents disagree on this pair)", "values": [{"measurement": "Kd", "setting": "ACE2-hFc (human) [5]", "result": 3, "unit": "nM"}, {"measurement": "koff", "setting": "ACE2-hFc (human) [5]", "result": 0.0004, "unit": "s⁻¹"}, {"measurement": "kon", "setting": "ACE2-hFc (human) [5]", "result": 130000, "unit": "M⁻¹ s⁻¹"}]}, {"substance": "mInCV01R (SARS CoV-2 RBD) having EIS at the N-terminal (from UniProt P0DTC2 331-532) (ligand)", "values": [{"measurement": "Kd", "setting": "[9]", "result": 1.3, "unit": "nM"}]}, {"substance": "mInCV26R (SARS CoV-2 RBD with hCMP at the C-terminal and EIS at the N-terminal) (ligand; other documents disagree on this pair)", "values": [{"measurement": "kon", "setting": "ACE2-hFc (human) [5]", "result": 360000, "unit": "M⁻¹ s⁻¹"}]}, {"substance": "mInCV29R (SARS CoV-2 RBD with GlyIZ at C-terminal and EIS at the N-terminal) (ligand)", "values": [{"measurement": "Kd", "setting": "[10]", "result": "3 nM and 5 nM"}, {"measurement": "Kd", "setting": "[2]", "result": 4.8, "unit": "nM"}, {"measurement": "koff", "setting": "[2]", "result": 0.00097, "unit": "s⁻¹"}, {"measurement": "kon", "setting": "[2]", "result": 200000, "unit": "M⁻¹ s⁻¹"}]}, {"substance": "MsDPS2-SpyTag-mRBD-SpyCatcher conjugate", "values": [{"measurement": "kon", "setting": "[11]", "result": "> 1e+06", "unit": "M⁻¹ s⁻¹"}, {"measurement": "kon", "setting": "[2]", "result": "4.2e+06", "unit": "M⁻¹ s⁻¹"}]}]}
